The values that follow come from patent US20120039878A1.

Bounds are passed on as bounds.

The target in assay [1] is murine monoclonal antibody 8G9. In words: Competition ELISA; human AA amyloid in solution competing with adsorbed mouse AA (AEF) for mAb 8G9. For orientation: An ELISA detects its analyte on a solid surface through an enzyme-linked reagent.
For assay [2], the target named is murine monoclonal antibody 7D8 (ATCC Accession Number PTA-9468). The assay can be described thus: Competition ELISA; human AA amyloid in solution competing with adsorbed mouse AA (AEF) for mAb 7D8.
murine monoclonal antibody 7D8 (ATCC Accession Number PTA-9468), sequence (VL, as listed by the source, chain 1 of 2): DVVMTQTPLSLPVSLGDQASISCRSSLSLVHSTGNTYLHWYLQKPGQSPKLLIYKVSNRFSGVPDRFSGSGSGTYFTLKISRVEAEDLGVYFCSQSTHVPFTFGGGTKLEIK
murine monoclonal antibody 7D8 (ATCC Accession Number PTA-9468), sequence (VH, as listed by the source, chain 2 of 2): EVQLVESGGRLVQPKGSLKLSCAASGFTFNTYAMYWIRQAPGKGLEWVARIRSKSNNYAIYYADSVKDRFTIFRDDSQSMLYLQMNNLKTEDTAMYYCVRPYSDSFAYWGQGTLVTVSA
Assay [3] has as its target murine monoclonal antibody 2A4 (ATCC Accession Number PTA-9662). In words: Competition ELISA; human AA amyloid in solution competing with adsorbed mouse AA (AEF) for mAb 2A4.
Assay [4] concerns the target the 3 mAbs (2A4, 8G9 and 7D8) as a group. In words: Competition ELISA; told for the three mAbs together.

murine monoclonal antibody 2A4 (ATCC Accession Number PTA-9662), sequence (VL, as listed by the source, chain 1 of 2): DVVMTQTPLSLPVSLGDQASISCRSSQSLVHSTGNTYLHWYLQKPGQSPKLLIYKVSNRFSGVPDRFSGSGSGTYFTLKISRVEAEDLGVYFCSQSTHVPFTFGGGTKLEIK
murine monoclonal antibody 2A4 (ATCC Accession Number PTA-9662), sequence (VH, as listed by the source, chain 2 of 2): as the sequence (VH, as listed by the source, chain 2 of 2) above
murine monoclonal antibody 8G9, sequence (VH, as listed by the source, chain 2 of 2): as above

B1: human AA amyloid (human renal AA amyloid extract; AA deposits in human tissue) (protein, UniProt P0DJI8 19-94, looked up)
Amyloid protein A: RSFFSFLGEAFDGARDMWRAYSDMREANYIGSDKYFHARGNYDAAKRGPGGAWAAEVITDARENIQRFFGHGAEDS
modifications: Amyloid protein A amyloid fibrils
Turning to B1, the figures for the 50% inhibitory concentration (IC50) in assay [1], in assay [2] and in assay [3] were greater than 120 µg/mL, greater than 881 µg/mL and greater than 212 µg/mL, respectively. Further, the fold of IC50 against murine AEF in solution in assay [4] lay within 6 to 44 fold.
